# T1: CdtA-CdtC heterodimer
# T1 chain 1: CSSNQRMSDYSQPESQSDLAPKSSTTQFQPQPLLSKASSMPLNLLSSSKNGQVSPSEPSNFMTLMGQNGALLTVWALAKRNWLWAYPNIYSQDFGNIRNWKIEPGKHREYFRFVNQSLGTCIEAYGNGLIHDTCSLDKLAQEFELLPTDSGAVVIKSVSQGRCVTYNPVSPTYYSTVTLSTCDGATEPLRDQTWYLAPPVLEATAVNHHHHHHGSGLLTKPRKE
# T1 chain 2: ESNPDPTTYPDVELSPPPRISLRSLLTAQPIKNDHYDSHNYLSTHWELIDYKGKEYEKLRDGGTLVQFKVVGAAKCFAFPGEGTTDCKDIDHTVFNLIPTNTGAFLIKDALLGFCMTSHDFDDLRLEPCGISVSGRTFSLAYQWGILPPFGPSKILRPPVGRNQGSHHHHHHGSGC
# B1: CdtB/DNase I hybrid protein (protein)
# chain: NLSDFKVATWNLQGSSAVNESKWNINVRQLLSGEQGADILMVQEAGSLPSSAVRTSRVIQHGGTPIEEYTWNLGTRSRPNMVYIYYSRLDVGANRVNLAIVSRRQADEAFIVHSDSSVLQSRPAVGIRIGTDVFFTVHAAPGDAVAEIDALYDVYLDVQEKWGLEDVMLMGDFNAGCSYVRPSQWSSIRLWTSPTFQWLIPDSADTTATPTHCAYDRIVVAGMLLRGAVVPDSALPFNFQAANGLSDQLAQAISDHYPVEVMLKHHHHHHHMLEDPAANKAQKK
# Target: T1, CdtA-CdtC heterodimer
protein,measurement,value
B1,DNA nicking activity of reconstituted heterotrimer preparations (subunit protection),reconstituted heterotrimer preparations containing the CdtB/DNase I hybrid protein failed to convert supercoiled DNA to linear and relaxed forms
